According to PMC12747170:

Molecular target: JEV-ED3 protein (domain III of the Japanese encephalitis virus envelope protein, aa 303-398, C-terminal His-tag) (Japanese encephalitis virus)
Assay: BLI

Which Kd does the source give for “recombinant Human EGFR Protein (ECD, hFc Tag) (from UniProt P00533 25-645) (Fc fusion)” here?
Its Kd is 283 nM.
